This assay has as its target recombinant Heme Detoxification Protein (PfHDP) (Plasmodium falciparum) (UniProt Q8IL04). In words: SPR. (SPR reads the build-up and loss of mass on a sensor chip optically.)

The Kd is the free concentration of one partner at which half of the binding sites on the other are occupied at equilibrium, for simple one-to-one binding. For the substance “recombinant C-terminal Plasmodium falciparum exportin 2 (Pfexp-2), amino acids 139-285 (domain or fragment)”, the Kd stood at 1100 nM.

(Values after paper doi:10.1101/2021.08.02.454712.)
